Source: the DeepSol protein solubility set

Experiment: soluble on expression in E. coli; label from the status in PepcDB or PDB records

Sequence	soluble on expression in E. coli
MKNLERLFAEKLLKIKAIKLQPANPFTWASGWKSPFYCDNRKTLSYPSLRNFVKIEITRLILERFGQVDAIAGVATGAIPQGALVADALNLPFVYVRSTPKDHGLENLIEGELRPGMKVVVVEDLISTGGSSLKAVEAIRRDGCEVIGMVAAYTYGFPVAEEAFKNAKVPLVTLTNYEAVLDVALRTGYIEEEDIATLNDWRKDPAHWDAGK	soluble
MKERMQKTSAQAHDFPQRARTESEWYEGVQTFMWMTEDNIVEVPFDKEHLLEIILSPSNLNKAYKAVVRNNGSGGIDKMSCEQLLSWLKANKDELIISLQSGTYRPNPVRRVEIPKDNGKKRLLGIPTVVDRLVQQAINQVLTLIYERQFSKTSYGFRPQRGCHDALRKAQKIVSEGYIYVVDLDLERFFDTVSHSKLIEILSRTIKDGRVISLIHKYLRSGVINRGMFEMSTEGTPQGGPLSPLLSNIMLNELDKELERRGHPFVRYADDAMIFCKSKRAAKRVRESITLFIEGKLFLKVNHEKTVVSYVKGVKFLGYSFYVKKGDCILLVHSKSKNKMKSKLKELTSRSNGWGYEKRKQKLKDYIRGWIAYFCLAQMKRLCIETDEWLRRRIRMCIWKSWKNAKTRVANLKKCGVSEWQAYQWGNTRLGYWRVSNSPIVTFVMSNDKLRKAGYMEFMDCYLKWCPK	not soluble
MGSDKIHHHHHHMKIDDIDAFVAVIRCQSISHAAESLDLTQPAITRRVQNFEQALGVELFDRNTKPLKPTPMGIQVYQKCLAILREMDSLRELVASDTPPSGLLRLGVPQTIGDVVLLDALKQLRGEFPDLRAQVSTGWGSHLIGKIENGELDAAAALFPAGKIFPDNIVGQSIGKMELVVVCAKGSVPKKPGKLADCYEQGWVLNPDGCGFRAGLQRTLTDQGLSMKVNLETFGTELQLGLVADGMGLGLVPRPLLERSAHREQLVVLPLKDFKPVMDLWLFYPRFLGNLQAPVEAFGALVARSLKPLSAAA	not soluble
MGEYIRYQGEEALGLIETLGMVPAIYGADSMLKAANVQLISYENVGSTLVTVMVKGDVAAVQASVDAGSVAAAGIGKLTAHNVMPRPIRPIGDIVSVHAITDDAPAGDGSRPRAMGLIETFGIVYVLEAADAMLKTADVELIGYENVASGYISVLVQGDVAACQAAVAAGVKAVQAMGTDVYSSVVIPTPHPDVAKITARYALENLLP	not soluble
LDEYQVSQDRLVESEERYRQLVESAPDAVLIHCDGRYVFANPAALRLYGADTADQLLGREITDFVHPNSRQVVAERIKLLYQERSPAPLCEQQIVRLDGTVVDVEVVGIPYSHQGRPAVQAVLREIT	not soluble
MGSDKIHHHHHHMAVKTIRTLAHFITACSEIKVKDDHTLFYRGHASDIYTPFPTIFRNQNDDPKKSRYIESEGELFHNLVTQCPEEFKDCTSTFDFLVKMQHYGLPTRLLDITSNPLVALYFACCTLIPESTKDKNAKNGQVLVYQVPNEEIKYYNSDTVSVISNLARVNTSFNFTDEEDRERFLHSIQAEKPYFKPYIKEAHLHSVICVKPKLDNRRIVKQSGAFFLFGMGKNKTDSIRISDKYRPDIKHIDIPKSSKETLLRELATLSISEATLFPEIDNVARFLKKEVKIKSLVVEEIEEEKLGNEISVAYQEFILNSLVLNTDLLEQIQHNSADRAMLGLYPELLQKAIIESQENYNEIALKLLVEEDSADKFAKNIFSKLKHKLEELS	not soluble
MTSKVGPVALKTFREKLGPELLEVFDKSYKSFTDVQVLSGTHLLNLSDVVVESPTGSGKTLAFVLPMMRMIQNAKLQPADIGALILSPSRELCSQIVSVIQPFAEKLNLTVETVTGGQKVDKNIKMFKNKNVNILVATPGRLFQIIQHEKTLIARKMRTLQLLVIDEADRFNEIQFEDHMREILSCIPKQRRTGLFSATQVKEEDDLMVFGLRNAKQVKVAQERNSAAPSTLKNYYVECRADEKTSVCLEFIRQRTDKKILIFFPSCNSVRYFYKIFERCLGKRPLFAVHGKCSNPHRASQIKAFSDSTNGVMISTDVMARGIDISDIDWVIQFDLPKHSSWFVHRAGRTARCGREGNALILIASEQLAYVNFLDNHEKVKLDEIKVPTNNSRKSEELRQKMIKIQVSDRAILEAGTRAFVSHVESYAKHDCHLICSLDDLNVVGLANSYALLRLPKMRELSQRKDLDMFDRSAIETSEIKYADVKLEANRETVMKEKHEKKVETLAAKDKKRREKEARKLKKMGGRFRNGGGTGRKAEEKKALKRKAEEEDDAQNDIRLLKRIKRGKLSKKEIKDVL	not soluble
MLKLGHCGVEKQEVQKRIGLRVIELREHKGWSQSDLARACNKDRQAIEKIESGKVNPTIFSLYEIAIALGVSLSKVTGI	not soluble
MGSDKIHHHHHHMRPDCTDFRQLFLDDVPMMDMRAPVEFAKGAFPGVVNLPLMNDQERQKVGTCYKQQGQAAAIALGHQLVSGATKQARLEAWAAFAKAHPDGYLYCFRGGLRSQIVQGWLRDEAGIQYPRVKGGYKAMRTFLLETTQQAVEQCDFVLVGGLTGTGKTDVLHQLDNVLDLEGHANHRGSSFGKRATAQPAQIDFENQLAIDVLKKRARGIGQFVLEDEGRIVGSCTVPLELYQGMQHYPLVWLEDSFTNRVERILRDYVVNLSAEFKAVHGEEDGPRLFAERMLQSMANIYKRLGGERHQRLSEMLREALQEQQRSGAVDLHRGWIEGLLNEYYDPMYAYQRAAKAERIEFAGDAVEVREYLKARALRQPRK	not soluble
AEFQVTSNEIKTGEQLTTSHVFSGFGCEGGNTSPSLTWSGVPEGTKSFAVTVYDPDAPTGSGWWHWTVVNIPATVTYLPVDAGRRDGTKLPTGAVQGRNDFGYAGFGGACPPKGDKPHHYQFKVWALKTEKIPVDSNSSGALVGYMLNANKIATAEITPVYEIKLE	soluble
MAKLDDWTDIFLDDEGNFRASADGDVQLVTGKAAYLQDVKHELETVLGSYPFDENYGTRLITYLQRENTELARQELIQDVEEVVMRHSFVVPGSVDVRANSWTLREIEFSVSFGVQTSGGIEPAELTVQITVDGVRVVRSE	not soluble
MSLKNIKSNLGDYATLVFDCDGVLLDSNKVKTQAFYEAALPYGEMAAQALADHHVANGGISRYKKFSYFLEHIVAQHAEGPSLEHLLDRYAENVSSGLLSCDIASGIRELRAKTPNTRWLIVSGGDQTELREVFAQRKLAEIFDGGIFGSPDAKEEIIARELRSSNIAPPALFIGDSKYDFKAASESNLDFLFLSDWSEVKNWQQWCNENNIYALGNISSLLETCTHPEEGHHHHHH	soluble
MSLVDFIDDNRGEFGVEPICTVLRSAGLQVALSTYYDAKARVPSARALRDAVLGPALCQLWKDNYCVYGARKLWKTARRDGHDVGRDQVARLMRAAGIEGVRRGKRVRTTKADPAAARHPDLVHRNFAAAAPNQLWATDLTFVPTWAGVAYVCFIIDAHSRMIVGWRVASHMRTSMVLDALEMARWSRGTTLQDLICHSDAGSQFTSIRYGERLAEIGAVPSIGTVGDSFDNALAETVNGYYKAELIYGPARSRPWKTVEDVELATLSWVHWHNTSRLHSYLGDIPPTEFEAAFYDAYRTDQPLIGIQEGHHHHHH	not soluble
MRGSHHHHHHGSMTRSALVTGITGQDGAYLAKLLLEKGYRVHGLVARRSSDTRWRLRELGIEGDIQYEDGDMADACSVQRAVIKAQPQEVYNLAAQSFVGASWNQPVTTGVVDGLGVTHLLEAIRQFSPETRFYQASTSEMFGLIQAERQDENTPFYPRSPYGVAKLYGHWITVNYRESFGLHASSGILFNHESPLRGIEFVTRKVTDAVARIKLGKQQELRLGNVDAKRDWGFAGDYVEAMWLMLQQDKADDYVVATGVTTTVRDMCQIAFEHVGLDYRDFLKIDPAFFRPAEVDVLLGNPAKAQRVLGWKPRTSLDELIRMMVEADLRRVSRE	soluble
MSIDIKYLSRIDIDREEFFFKDSRLMCKKFDEEREVLTLLEFDTKFRVNLLKKDKVYKYFLVSDANHKLLIANLVTEQQAKDLSFIEKDIMKIASSATAYGASDIHFIREDRICKIKFRVNGTMIDYREILSSEADALMFVLYNVMATTKETTWNRKLPQDANIILVINEKAYRFRYAHMPLFGEGGKNYHAVVRIIYPSNNFVCTNYQDIGYNEADTDAIARILNTSYGLFIVSGTTGSGKSTSLKKYIELLFFNKYKGKGCFVTVEDPVEYLISGAQQSSIVADNDDKTKNPFADAVRSAMRRDPDVIMIGEIRDKPTVEALSSAVESGHYCLTTIHAGSVVSVLQRLSGLGMKADKIASPGFLAGITSQKLIPELCPSCKVSFVDERYQRAVFSANENGCEACNHSGFKGRLLLLETLVPTVEDLELVASENWVSLYRKYRERRFIKTGKKGLGEGFSIKDKAYYNVLKGKVCHEYFMLHFGQLDHEDENIIYENYLQEV	not soluble
MGMTPAQEVISYLINAAIGVSSTSSRPFRDAPPGCPDTLLVQCVKWFFRNGDFSNFYEDIKYLVKGKSLAGFVNSHLMVCPELIRIIVENADNKSRRVKFLIKKDEFAICVGRGRLITFPFTKDMEEPACILAEYTELLFSFPHYDIEYSFEGSYGLSRNMDLTETHIMLLSKLTPSMFAEKARPRRVRERNGRLAVRMSRISWNRSGLYYNAIIQFFESLRGTVITQGEQPLCEKSVTYQEMLKHTLAHPGVHQLDSRPNFQWKISMRKTRKND	not soluble
MAVTNVAELNALVERVKKAQREYASFTQEQVDKIFRAAALAAADARIPLAKMAVAESGMGIVEDKVIKNHFASEYIYNAYKDEKTCGVLSEDDTFGTITIAEPIGIICGIVPTTNPTSTAIFKSLISLKTRNAIIFSPHPRAKEATNKAADIVLQAAIAAGAPKDLIGWIDQPSVELSNALMHHPDINLILATGGPGMVKAAYSSGKPAIGVGAGNTPVVIDETADIKRAVASVLMSKTFDNGVICASEQSVVVVDSVYDAVRERFASHGGYMLQGQELKAVQNVILKNGALNAAIVGQPAYKIAELAGFSVPETTKILIGEVTVVDESEPFAHEKLSPTLAMYRAKDFEEAVEKAEKLVAMGGIGHTSCLYTDQDNQPERVAYFGQMMKTARILINTPASQGGIGDLYNFKLAPSLTLGCGSWGGNSISENVGPKHLINKKTVAKRAENMLWHKLPKSIYFRRGSLPIALDEVITDGHKRALIVTDRFLFNNGYADQITSVLKAAGVETEVFFEVEADPTLSVVRKGAELANSFKPDVIIALGGGSPMDAAKIMWVMYEHPETHFEELALRFMDIRKRIYKFPKMGVKAKMIAVTTTSGTGSEVTPFAVVTDDATGQKYPLADYALTPDMAIVDANLVMDMPKSLCAFGGLDAVTHALEAYVSVLASEFSDGQALQALKLLKENLPASYHEGSKNPVARERVHSAATIAGIAFANAFLGVCHSMAHKLGSQFHIPHGLANALLICNVIRYNANDNPTKQTAFSQYDRPQARRRYAEIADHLGLSAPGDRTAAKIEKLLAWLESIKAELGIPKSIREAGVQEADFLAHVDKLSEDAFDDQCTGANPRYPLISELKQILLDTYYGRDFTEGEVAAKKDVVAAPKAEKKAKKSA	soluble
MSLCVFLTSEVNMGLFNFVKDAGEKLWDAVTANHDKDDQAKKVQEHLNKTGIPDTDKVNVQIADGKATVTGDGLSQEAKEKILVAVGNIAGISSVDDQVKTTTPAAESQFYTVKSGDTLSAISKQVYGNANLYNKIFEANKPMLKSPEKIYPGQVLRIPEEGHHHHHH	not soluble
SMSSHDGLMVFTGNANPALAQEVVKILGIPLGKAMVSRFSDGEIQVEIQENVRGKDVFVLQSTCAPTNDNLMELMIMVDALKRASAGRITAAIPYFGYARQDRRPRSARVAISAKVVANMLEIAGVERIITMDLHADQIQGFFDIPVDNIYATPILLGDLRKQNYPDLLVVSPDVGGVVRARALAKQLNCDLAIIDKRRPKANVAEVMNIIGEVEGRTCVIMDDMVDTAGTLCKAAQVLKERGAKQVFAYATHPVLSGGAADRIAASALDELVVTDTIPLSAESLACPKIRALSSAGLLAETFSRIRRGDSVMSLFAES	soluble
